B1: DFD23 (Fc fusion)
chain: HGEGTFTSDVSSYLEGQAAKEFIAWLVKGRGEKEKEEQEERETKTPECPSHTQPLGVFLFPPKPKDTLMISRTPEVTCVVVDVSQEDPEVQFNWYVDGVEVHNAKTKPREEQFNSTYRVVSVLTVLHQDWLNGKEYKCKVSNKGLPSSIEKTISKAKGQPREPQVYTLPPSQEEMTKNQVSLTCLVKGFYPSDIAVEWESNGQPENNYKTTPPVLDSDGSFFLYSRLTVDKSRWQEGNVFSCSVMHEALHNHYTQKSLSLSLGKGGGGSGGGGSGGGGSHPIPDSSPLLQFGGQVRQRYLYTDDAQQTEAHLEIREDGTVGGAADQSPESLLQLKALKPGVIQILGVKTSRFLCQRPDGALYGSLHFDPEACSFREEIRPDGYNVYQSEAHGLPLHLPGNKSPHRDPAPRGPARFLPLPGLPPALPEPPGILAPQPPDVGSSDPLSMVTGLEAVRSPSYAS
B2: DFD59: GLP1(GEG)-HyFc40 (Fc fusion)
chain: HGEGTFTSDVSSYLEEQAAKEFIAWLVKGGGEKEKEEQEERETKTPECPSHTQPLGVFLFPPKPKDTLMISRTPEVTCVVVDVSQEDPEVQFNWYVDGVEVHNAKTKPREEQFNSTYRVVSVLTVLHQDWLNGKEYKCKVSNKGLPSSIEKTISKAKGQPREPQVYTLPPSQEEMTKNQVSLTCLVKGFYPSDIAVEWESNGQPENNYKTTPPVLDSDGSFFLYSRLTVDKSRWQEGNVFSCSVMHEALHNHYTQKSLSLSLGK

Target: human GLP-1 receptor (human, UniProt P43220 24-463)
Experiment: cell-based or functional assay

Binder	in vitro GLP-1 activity (intracellular cAMP, EC50 compared)
B1	2 to 3 times lower than the fusion proteins containing other GLP-1 mutant sequences
B2	~2 times higher than DFD69, DFD112 and DFD114

— patent US20190314452A1 (YUHAN, published 2019)
